Test results published in patent publication US20080118487A1.
Where a chain is given by its changes, count along the chain named. One block for each binder: values may come before it. Where no end group is shown, it is not given here.

What was measured:
[1] = target: T1, recombinant myostatin (Example 4); experiment: cell-based or functional assay
T1 sequence (O14793 267-375, species assumed, looked up): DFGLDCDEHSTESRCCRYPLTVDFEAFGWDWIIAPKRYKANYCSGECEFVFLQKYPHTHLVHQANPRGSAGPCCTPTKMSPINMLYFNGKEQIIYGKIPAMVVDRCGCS

[2] = target: T2, recombinant bovine mature myostatin (bovine) (UniProt O18836); experiment: cell-based or functional assay
T2 sequence (looked up): T1 sequence (O14793 267-375, species assumed, looked up) with K90E, E91G

rescue of myostatin inhibited myoblast proliferation (C2C12, methylene blue assay) (molar ratio roMSV65 to myostatin) [1]: 20
B1: recombinant ovine myostatin splice variant 65 (roMSV65) (peptide, not shown: small tags and cut ends)
chain: VHFYTPPYGQWIFHKERKIIFLEVYIQFCSILGEAVFKRQSKSIHFCQNFKIIACLCNTAAFRMK

rescue of myostatin inhibited myoblast proliferation (C2C12, methylene blue assay) (molar ratio roMSV47 to myostatin) [2]: 1
restoring proliferation of C2C12 myoblasts inhibited by myostatin (molar ratio roMSV47 to myostatin) [2]: 10
B2: recombinant ovine MSV47 (roMSV47) (peptide, not shown: small tags and cut ends)
chain: IIFLEVYIQFCSILGEAVFKRQSKSIHFCQNFKIIACLCNTAAFRMK
modifications: ends and bridges not checked; also: 36-aa N-terminal pET100/D-TOPO tag (enterokinase site, Xpress epitope, His), letters not shown

proliferation of primary human myoblasts inhibited by myostatin (molar ratio rhMSV38 to myostatin) [2]: 10
restoration of proliferation of human primary myoblasts inhibited by myostatin (methylene blue assay) (molar ratio rhMSV38 to myostatin) [2]: 1
B3: recombinant human MSV38 (rhMSV38) (peptide, not shown: small tags and cut ends)
chain: VHFPTPPNEEWIFFNVRRIIFLEVGFQFCSILGETALS
modifications: also: 36-aa N-terminal pET100/D-TOPO tag (enterokinase site, Xpress epitope, His), letters not shown
